Target: PabA variant aY127A (Escherichia coli) (UniProt P00903)
Experiment: ITC; 250 μM PabB titrated into 25 μM PabA in the cell; 25 °C; 50 mM Tris/HCl pH 7.5, 50 mM KCl, 5 mM MgCl2; without Cho and Gln; one set of sites

Kd: > 8 µM
Substance: PabB, synthase subunit of aminodeoxychorismate synthase (ADCS) from Escherichia coli, wild type (from UniProt P05041 1-453) (enzyme)
